Data published in paper PMC8809517, “Cofactor-independent RNA editing by a synthetic S-type PPR protein”.
Where a chain is given by its changes, count along the chain named.

T1: GFP-9S library array, motif 4 ND N98H;D124T (synthetic construct, N98H;D124T)
T1 chain: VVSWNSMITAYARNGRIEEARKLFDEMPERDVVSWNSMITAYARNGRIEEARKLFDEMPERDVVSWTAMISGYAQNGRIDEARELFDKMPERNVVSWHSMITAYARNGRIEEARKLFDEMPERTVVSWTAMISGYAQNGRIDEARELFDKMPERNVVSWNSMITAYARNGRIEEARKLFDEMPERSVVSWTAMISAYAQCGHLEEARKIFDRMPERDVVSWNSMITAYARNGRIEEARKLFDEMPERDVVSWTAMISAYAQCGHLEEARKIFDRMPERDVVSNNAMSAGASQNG

T2: GFP-9S library array, motif 4 ND N98M;D124P (synthetic construct, N98M;D124P)
T2 chain: T1 chain with H98M, T124P

T3: GFP-9S library array, motif 4 ND N98Y;D124C (synthetic construct, N98Y;D124C)
T3 chain: T1 chain with H98Y, T124C

T4: GFP-9S library array, motif 4 ND N98E;D124S (synthetic construct, N98E;D124S)
T4 chain: T1 chain with H98E, T124S

T5: GFP-9S library array, motif 4 ND N98C;D124R (synthetic construct, N98C;D124R)
T5 chain: T1 chain with H98C, T124R


Key:
Test in all cases: high-throughput RNA pulldown from lysate on Ni-NTA beads; HRP: 50 mM Tris pH 8, 150 mM NaCl, 1 mM beta-mercaptoethanol, 50 ug/ml BSA, 3 ug/ml yeast RNA, 0.5% heparin; ITC and FP: Tris pH 8, 200 mM KCl, 5% glycerol; MST: 50 mM Tris pH 8, 200 mM NaCl, 1 mM DTT, BSA, heparin, 0.05% Tween 20
Conditions in all cases: tags: N-terminal His-eGFP
[1] = molecular target: T1, GFP-9S library array, motif 4 ND …
[2] = molecular target: T2, GFP-9S library array, motif 4 ND …
[3] = molecular target: T3, GFP-9S library array, motif 4 ND …
[4] = molecular target: T4, GFP-9S library array, motif 4 ND …
[5] = molecular target: T5, GFP-9S library array, motif 4 ND …

Row | Binder | Kd ([1]; label: 5' Cy5) [nM] | Kd ([2]; label: 5' Cy5) [nM] | Kd ([3]; label: 5' Cy5) [nM] | Kd ([4]; label: 5' Cy5) [nM] | Kd ([5]; label: 5' Cy5) [nM] | Kd ([1]; label: 5' IRDye 800CW) [nM] | Kd ([2]; label: 5' IRDye 800CW) [nM] | Kd ([3]; label: 5' IRDye 800CW) [nM] | Kd ([4]; label: 5' IRDye 800CW) [nM] | Kd ([5]; label: 5' IRDye 800CW) [nM]
1 | AUUAGACGUGA (ssRNA) [Cy5-rpoA-G] | 75 | 115 | 115 | 630 | 54.9 |  |  |  |  | 
2 | AUUACACGUGA (ssRNA) [Cy5-rpoA] | 50.9 | 106 | 126 | 422 | 160 |  |  |  |  | 
3 | AUUAAACGUGA (ssRNA) [IR-rpoA-A] |  |  |  |  |  | 103 | 264 | 211 | 938 | 44.5
4 | AUUAUACGUGA (ssRNA) [IR-rpoA-U] |  |  |  |  |  | 24.9 | 296 | 271 | 512 | 96.8
